We go through 21 sequences from the nanobody polyreactivity screen of Harvey et al. (2022).

A short description of this data set: yeast display, Sf9 membrane polyspecificity reagent, FACS + sequencing; frameworks hold sequencing errors. The gist of the method:
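A synthetic nanobody library was expressed on Saccharomyces cerevisiae BJ5465 by galactose induction for 36–48 hours. The library was stained for 1 hour at 4 °C with 10% biotinylated, detergent-solubilized Sf9 membrane reagent and enriched with streptavidin microbeads before FACS. Low and high (top ~1%) gates were set on anti-HA fluorescence for expression and streptavidin fluorescence for reagent binding, and each polyreactivity label reflects the gate of origin.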
Turning to “QVQLVESGGGLVQAGGSLRLSCAASGNTFRRNVMGWYRQAPGKERELVAAINRGGSTTDADSVKGRFTISRDNAKNTVYLQMNSLKPEDTAVYYCNARTLFKWRHGHYYAYDYWGQGTQVTVSS”, the “polyreactivity (PSR sort gate)” value is “high polyreactivity”. As for “QVQLVESGGGLVQAGGSLRLSCAASGNTFRVYTMGWYRQAPGKERELVAAINSSGRTNYADSVKGRFTISRDNAKNTVYLLMNCLKPEDTAVYYCAADYYQWSTFLGVYEYAYWGQGTQVTVSS”, the entry is “low polyreactivity”; as for “QVQLVESGGGLVQAGGSLRLSCAASGNTFRWNAMGWYRQAPGKERELVAGISIDDGSNYADSVKGRFTISRDNAKKTVYLQMNSLTPEDTAVYDCNRDWALYVFGRHYHAYYSWGQGTHVTVSS”, “low polyreactivity”; as for “QVQLVESGGGLVQAGGSLRLSCAASGNTFRYYAMGWYRQAPGKERELVAVITTRGGSTNYADSVKGRFTISRDNAKNTVYLQMNSLKPEDTAVYYCAARPGIRSYPPGYGYWGQGTQVTVSS”, “low polyreactivity”.

For the sequence “QVQLVESGGGLVQAGGSLRLSCAASGNTFSDYAMGWYRQAPGKERELVAAISSSGVRTYYADSVKGRYTISRDNAKNTVYLQINSLKPEDTAVSYCNAVLNQLSYIYPAVGFWGQGTLVTVSS”, the “polyreactivity (PSR sort gate)” value is listed as “high polyreactivity”. Turning to “QVQLVESGGGLVQAGGSLRLSCAASGNTFSRYAMGWYRQAPGKERELVAAISYSTGSTRYADSVKGRFTISRDNAKNTVYLQMNSLKPEDTAVYYCAARAKSRGYWGQGTQVTVSS”, the “polyreactivity (PSR sort gate)” value is on record as “high polyreactivity”. Consider “QVQLVESGGGLVQAGGSLRLSCAASGNTFSSNAMGWYRQAPGKERELVAAISWSGGRTYYADSVKGRFTISRDNAKNTVYLQMNSLKPEDTAVYYCAAALGRRRTGYDYWGQGTQVTVSS”, for which the “polyreactivity (PSR sort gate)” value is reported as “high polyreactivity”. “QVQLVESGGGLVQAGGSLRLSCAASGNTFTRNTMGWYRPAPGKERELVASISLSGASTYYADSVKGRFTISRDNAKNTVYLQMNSLKPEDTAVYYCAAEYFNYKTDVDYWGQGTQVTVSS”: the “polyreactivity (PSR sort gate)” value is “high polyreactivity”.

For “QVQLVESGGGLVQAGGSLRLSCAASGNTFTWYTMGWYRQAPGKERELVAAISSSGGNTYYADSVKGRFTISRDNAKNTVYLQMNSLKPEDTAVYYCAADLSSAYGHDYRGQGTQVTVSS”, the “polyreactivity (PSR sort gate)” value is “low polyreactivity”. Turning to “QVQLVESGGGLVQAGGSLRLSCAASGNTFTWYTMGWYRQAPGKERELVAVITSDGSTYYADSVKGRFTISRDNAKNTVYLQMNSLKPEDTAVYYCNKATVTGQESYAYDYWGQGTQVTVSS”, the “polyreactivity (PSR sort gate)” value is listed as “low polyreactivity”. For the sequence “QVQLVESGGGLVQAGGSLRLSCAASGNTFTWYTMGWYRQAPGKERELVAVMTSDGSTYYADSVKGRFTISRDNAKNTVSFQMNSLKPEDTAVYYCNRGVFDTFYYYPQVGFGYWGQGTQVTVSS”, the “polyreactivity (PSR sort gate)” value is on record as “low polyreactivity”.

For the sequence “QVQLVESGGGLVQAGGSLRLSCAASGNTFTYYAMGWYRQAPGKERELVAAISSGGRTYYADSVKGRFTISRDNAKNTVYLQMNSLKPEDTAVYYCAARIKYGYPGPRYYYWGQGTQVTVSS”, the “polyreactivity (PSR sort gate)” value is “high polyreactivity”. As for “QVQLVESGGGLVQAGGSLRLSCAASGNTFVTYAMGWYRQAPGKVRELVATISSSGGSTYYADSVKGRFTISRDNAKNTVYLQMNSLKPEDTAVYYCAKQAWAYALYTNFYSGDYGYWGQGTQVTVSS”, the “polyreactivity (PSR sort gate)” value is “low polyreactivity”.

For the sequence “QVQLVESGGGLVQAGGSLRLSCAASGNTFVYYAMGWYRQAPGKERELVAGISRRSGSTYYADSVKGRFTISRDNAKNTVYLQMNSLKPEDTAVYYCAIGRTYLDAEDYWGQGSQVTVSS”, the “polyreactivity (PSR sort gate)” value is on record as “low polyreactivity”.

Turning to “QVQLVESGGGLVQAGGSLRLSCAASGNTFWFYRMGWYRQAPGKERELVAAITSGGSTDYADSVKGRFTISRDNAKNTVYLQMNSLKPEDTAVYYCAAEPVAYYGSSYGYWGQGTQVTVSS”, the “polyreactivity (PSR sort gate)” value was “low polyreactivity”. For “QVQLVESGGGLVQAGGSLRLSCAASGNTFWGNAMGWYRQAPGKERELVATISASAGSTYYADSVKGRFTISRDNAKNTVYLQMNSLKPDDTAVYYCAKTALRYLKHGRTKGDYWGQGTQVTLSS”, the “polyreactivity (PSR sort gate)” value is given as “low polyreactivity”. As for “QVQLVESGGGLVQAGGSLRLSCAASGNTFYGYAMGWYRQAPGKERELVAAITKTGGSTYYADSVKGRFTISRDNAKNTVYLQMNSLKPEDTAVYYCNAARETRPRDYYWGQGTQVTVSS”, the “polyreactivity (PSR sort gate)” value is recorded as “low polyreactivity”.

With “QVQLVESGGGLVQAGGSLRLSCAASGNTFYKNTMGWYRQAPWKERELVAAISQRGTRTYYADSVKGRFTISRDNAKNTVYLQMNSLKPEDTAVYYCATDLSQVGFDYWGQGTQVTVSS”, the “polyreactivity (PSR sort gate)” value is listed as “high polyreactivity”.

“QVQLVESGGGLVQAGGSLRLSCAASGNTFYRYAMGRYRQAPGKEREFVAGITSRGGSTSYADSVKGRFTISRDSAKNTVYLQMNILKPEDTAVYYCAARYSKVHFAYDYWGQGTQVTVSS”: the “polyreactivity (PSR sort gate)” value was “high polyreactivity”.

As for “QVQLVESGGGLVQAGGSLRLSCAASGNTFYSNAMGWYRQAPGKERDLVAAISASGTTTYYADSVKGRFTISRDNAKNTVYLQMNSLKPEDTAVYYCAAVAPTRATRREDSWGQGTQVTVSS”, the “polyreactivity (PSR sort gate)” value was “high polyreactivity”. Consider “QVQLVESGGGLVQAGGSLRLSCAASGNTFYTYGMGWYRQAPGKERELVAAINHNGGSTYYADSVKARFTISRDNAKNTVYLQMNSLKPEDTAVYYCNADYSTYVERGSSVYYWYDYWGQGTQVTVSS”, for which the “polyreactivity (PSR sort gate)” value was “low polyreactivity”.
